# Test results: paper PMC5663815, “Macrophage migration inhibitory factor (MIF) modulates trophic signaling through interaction with serine protease HTRA1” (Cellular and Molecular Life Sciences: CMLS, 2017)
# B1: MIF (Pepro-Tech, 300-69) (natural protein, UniProt P14174 1-115, looked up)
# chain: MPMFIVNTNVPRASVPDGFLSELTQQLAQATGKPPQYIAVHVVPDQLMAFGGSSEPCALCSLHSIGKIGGAQNRSYSKLLCGLLAERLRISPDRVYINYYDMNAANVGWNNSTFA
# notes: also called unlabeled MIF; non-labeled MIF; source: bought: Pepro-Tech, 300-69
# Biological target: T1, Recombinant human HTRA1 (R&D Systems, 2916-SE) (human, UniProt Q92743 23-480, RED-NHS dye label (Monolith NT Protein Labeling Kit RED-NHS), molar dye to protein ratio 5:1)
# T1 construct: Serine protease HTRA1, human, recombinant, R&D Systems catalogue 2916-SE; In the functional rows the HTRA1 was full-length HTRA1 (pcDNA3) in medium of stably transfected HEK293 cells, not this bought protein; also called labeled HTRA1; source: bought: R&D Systems, 2916-SE
# T1 sequence (Q92743 23-480): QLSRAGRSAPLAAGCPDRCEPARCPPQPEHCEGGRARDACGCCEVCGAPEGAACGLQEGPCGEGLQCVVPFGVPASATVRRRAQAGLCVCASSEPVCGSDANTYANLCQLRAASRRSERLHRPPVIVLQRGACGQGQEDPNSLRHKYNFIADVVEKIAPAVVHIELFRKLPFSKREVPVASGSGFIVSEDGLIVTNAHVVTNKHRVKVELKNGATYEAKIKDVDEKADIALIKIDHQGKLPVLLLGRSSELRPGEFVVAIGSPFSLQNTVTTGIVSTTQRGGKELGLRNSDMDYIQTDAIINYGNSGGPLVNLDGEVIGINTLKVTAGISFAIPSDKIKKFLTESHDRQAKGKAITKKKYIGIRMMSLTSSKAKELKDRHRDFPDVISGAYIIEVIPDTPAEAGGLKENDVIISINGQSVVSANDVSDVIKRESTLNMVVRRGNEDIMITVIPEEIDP
# Assay: MST; labeled HTRA1 constant at 65 nM, unlabeled MIF titrated 2.28 nM to 1 µM; 50 mM Tris, 0.05% Tween-20, pH 8.0; 20 min at RT, 25 °C; Monolith NT.115, 40% LED, 80% MST power; Thermophoresis + T-jump signal
# Details: both partners purified
binder,measurement,value
B1,Kd,147 nM
